In PMC4615246 (Nucleus, 2015):
Where two headings read alike, the source gives them in different places.

B1: Nup93 (endogenous) (natural protein)
chain: MDTEGFGELLQQAEQLAAETEGISELPHVERNLQEIQQAGERLRSRTLTRTSQETADVKASVLLGSRGLDISHISQRLESLSAATTFEPLEPVKDTDIQGFLKNEKDNALLSAIEESRKRTFGMAEEYHRESMLVEWEQVKQRILHTLLASGEDALDFTQESEPSYISDVGPPGRSSLDNIEMAYARQIYIYNEKIVNGHLQPNLVDLCASVAELDDKSISDMWTMVKQMTDVLLTPATDALKNRSSVEVRMEFVRQALAYLEQSYKNYTLVTVFGNLHQAQLGGVPGTYQLVRSFLNIKLPAPLPGLQDGEVEGHPVWALIYYCMRCGDLLAASQVVNRAQHQLGEFKTWFQEYMNSKDRRLSPATENKLRLHYRRALRNNTDPYKRAVYCIIGRCDVTDNQSEVADKTEDYLWLKLNQVCFDDDGTSSPQDRLTLSQFQKQLLEDYGESHFTVNQQPFLYFQVLFLTAQFEAAVAFLFRMERLRCHAVHVALVLFELKLLLKSSGQSAQLLSHEPGDPPCLRRLNFVRLLMLYTRKFESTDPREALQYFYFLRDEKDSQGENMFLRCVSELVIESREFDMILGKLENDGSRKPGVIDKFTSDTKPIINKVASVAENKGLFEEAAKLYDLAKNADKVLELMNKLLSPVVPQISAPQSNKERLKNMALSIAERYRAQGISANKFVDSTFYLLLDLITFFDEYHSGHIDRAFDIIERLKLVPLNQESVEERVAAFRNFSDEIRHNLSEVLLATMNILFTQFKRLKGTSPSSSSRPQRVIEDRDSQLRSQARTLITFAGMIPYRTSGDTNARLVQMEVLMN
B2: Nup62 (endogenous) (natural protein)
chain: MSGFNFGGTGAPTGGFTFGTAKTATTTPATGFSFSTSGTGGFNFGAPFQPATSTPSTGLFSLATQTPATQTTGFTFGTATLASGGTGFSLGIGASKLNLSNTAATPAMANPSGFGLGSSNLTNAISSTVTSSQGTAPTGFVFGPSTTSVAPATTSGGFSFTGGSTAQPSGFNIGSAGNSAQPTAPATLPFTPATPAATTAGATQPAAPTPTATITSTGPSLFASIATAPTSSATTGLSLCTPVTTAGAPTAGTQGFSLKAPGAASGTSTTTSTAATATATTTSSSSTTGFALNLKPLAPAGIPSNTAAAVTAPPGPGAAAGAAASSAMTYAQLESLINKWSLELEDQERHFLQQATQVNAWDRTLIENGEKITSLHREVEKVKLDQKRLDQELDFILSQQKELEDLLSPLEELVKEQSGTIYLQHADEEREKTYKLAENIDAQLKRMAQDLKDIIEHLNTSGAPADTSDPLQQICKILNAHMDSLQWIDQNSALLQRKVEEVTKVCEGRRKEQERSFRITFD

Columns and labels:
Experiment in all cases: LacI/LacO array recruitment in cells
[1] = molecular target: T1, LacI-CFP-Nup53 (human, UniProt Q8NFH5 1-326)
T1 sequence: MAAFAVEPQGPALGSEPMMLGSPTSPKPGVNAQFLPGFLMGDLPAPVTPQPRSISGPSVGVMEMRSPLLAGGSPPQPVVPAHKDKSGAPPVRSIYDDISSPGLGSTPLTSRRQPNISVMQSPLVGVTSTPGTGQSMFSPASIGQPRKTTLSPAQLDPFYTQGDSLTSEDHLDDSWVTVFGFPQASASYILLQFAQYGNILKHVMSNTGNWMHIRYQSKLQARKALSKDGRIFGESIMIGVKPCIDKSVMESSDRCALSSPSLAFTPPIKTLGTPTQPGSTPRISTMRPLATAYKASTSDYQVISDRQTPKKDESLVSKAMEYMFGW

[2] = molecular target: T1, LacI-CFP-Nup53; remark: listed apart in the source
[3] = molecular target: T2, LacI-CFP-Nup98 (human, UniProt P52948 1-880)
T2 sequence: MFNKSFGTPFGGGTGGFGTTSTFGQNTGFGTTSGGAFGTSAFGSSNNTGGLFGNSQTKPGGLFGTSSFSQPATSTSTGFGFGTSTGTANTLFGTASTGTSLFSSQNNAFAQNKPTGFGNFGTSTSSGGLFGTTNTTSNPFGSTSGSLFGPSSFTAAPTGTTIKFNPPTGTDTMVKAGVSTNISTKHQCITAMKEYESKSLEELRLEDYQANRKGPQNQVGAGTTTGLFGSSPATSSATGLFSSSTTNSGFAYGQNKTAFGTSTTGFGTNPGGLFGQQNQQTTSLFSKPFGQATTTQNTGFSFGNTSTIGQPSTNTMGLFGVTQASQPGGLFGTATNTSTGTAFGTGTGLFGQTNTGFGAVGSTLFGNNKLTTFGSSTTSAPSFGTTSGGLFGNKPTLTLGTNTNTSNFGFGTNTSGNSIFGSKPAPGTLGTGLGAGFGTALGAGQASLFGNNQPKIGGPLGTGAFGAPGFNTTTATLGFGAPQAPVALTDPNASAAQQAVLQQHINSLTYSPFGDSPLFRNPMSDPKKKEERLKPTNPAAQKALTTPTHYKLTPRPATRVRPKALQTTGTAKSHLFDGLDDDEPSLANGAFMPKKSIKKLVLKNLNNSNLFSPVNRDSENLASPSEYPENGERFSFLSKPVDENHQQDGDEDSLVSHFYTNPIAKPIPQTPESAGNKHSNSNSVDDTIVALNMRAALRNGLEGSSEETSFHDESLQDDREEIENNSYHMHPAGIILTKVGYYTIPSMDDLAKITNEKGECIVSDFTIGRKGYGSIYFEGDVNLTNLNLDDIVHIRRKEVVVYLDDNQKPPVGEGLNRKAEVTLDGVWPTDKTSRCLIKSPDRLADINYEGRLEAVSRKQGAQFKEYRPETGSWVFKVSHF

[4] = molecular target: T3, LacI-CFP-Nup58 (human, UniProt Q9BVL2 1-599)
T3 sequence: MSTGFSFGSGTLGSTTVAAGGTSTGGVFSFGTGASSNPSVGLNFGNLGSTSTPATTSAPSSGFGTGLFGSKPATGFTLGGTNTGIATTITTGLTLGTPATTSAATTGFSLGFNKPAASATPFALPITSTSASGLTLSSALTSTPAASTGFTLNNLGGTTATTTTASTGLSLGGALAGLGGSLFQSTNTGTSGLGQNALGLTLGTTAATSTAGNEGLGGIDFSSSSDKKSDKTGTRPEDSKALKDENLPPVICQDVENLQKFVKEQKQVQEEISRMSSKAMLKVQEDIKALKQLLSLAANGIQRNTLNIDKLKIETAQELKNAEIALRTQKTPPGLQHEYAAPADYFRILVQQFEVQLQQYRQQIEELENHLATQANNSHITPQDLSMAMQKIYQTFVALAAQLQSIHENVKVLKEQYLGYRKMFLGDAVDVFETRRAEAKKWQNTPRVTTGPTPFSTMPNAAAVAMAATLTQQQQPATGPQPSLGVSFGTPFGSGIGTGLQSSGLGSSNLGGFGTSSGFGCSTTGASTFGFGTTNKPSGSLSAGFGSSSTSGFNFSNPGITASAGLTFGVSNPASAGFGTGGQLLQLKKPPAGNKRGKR

[5] = molecular target: LacI-CFP-Nup214 (human, UniProt P35658 1-2090)
LacI-CFP-Nup214, sequence (P35658 whole entry): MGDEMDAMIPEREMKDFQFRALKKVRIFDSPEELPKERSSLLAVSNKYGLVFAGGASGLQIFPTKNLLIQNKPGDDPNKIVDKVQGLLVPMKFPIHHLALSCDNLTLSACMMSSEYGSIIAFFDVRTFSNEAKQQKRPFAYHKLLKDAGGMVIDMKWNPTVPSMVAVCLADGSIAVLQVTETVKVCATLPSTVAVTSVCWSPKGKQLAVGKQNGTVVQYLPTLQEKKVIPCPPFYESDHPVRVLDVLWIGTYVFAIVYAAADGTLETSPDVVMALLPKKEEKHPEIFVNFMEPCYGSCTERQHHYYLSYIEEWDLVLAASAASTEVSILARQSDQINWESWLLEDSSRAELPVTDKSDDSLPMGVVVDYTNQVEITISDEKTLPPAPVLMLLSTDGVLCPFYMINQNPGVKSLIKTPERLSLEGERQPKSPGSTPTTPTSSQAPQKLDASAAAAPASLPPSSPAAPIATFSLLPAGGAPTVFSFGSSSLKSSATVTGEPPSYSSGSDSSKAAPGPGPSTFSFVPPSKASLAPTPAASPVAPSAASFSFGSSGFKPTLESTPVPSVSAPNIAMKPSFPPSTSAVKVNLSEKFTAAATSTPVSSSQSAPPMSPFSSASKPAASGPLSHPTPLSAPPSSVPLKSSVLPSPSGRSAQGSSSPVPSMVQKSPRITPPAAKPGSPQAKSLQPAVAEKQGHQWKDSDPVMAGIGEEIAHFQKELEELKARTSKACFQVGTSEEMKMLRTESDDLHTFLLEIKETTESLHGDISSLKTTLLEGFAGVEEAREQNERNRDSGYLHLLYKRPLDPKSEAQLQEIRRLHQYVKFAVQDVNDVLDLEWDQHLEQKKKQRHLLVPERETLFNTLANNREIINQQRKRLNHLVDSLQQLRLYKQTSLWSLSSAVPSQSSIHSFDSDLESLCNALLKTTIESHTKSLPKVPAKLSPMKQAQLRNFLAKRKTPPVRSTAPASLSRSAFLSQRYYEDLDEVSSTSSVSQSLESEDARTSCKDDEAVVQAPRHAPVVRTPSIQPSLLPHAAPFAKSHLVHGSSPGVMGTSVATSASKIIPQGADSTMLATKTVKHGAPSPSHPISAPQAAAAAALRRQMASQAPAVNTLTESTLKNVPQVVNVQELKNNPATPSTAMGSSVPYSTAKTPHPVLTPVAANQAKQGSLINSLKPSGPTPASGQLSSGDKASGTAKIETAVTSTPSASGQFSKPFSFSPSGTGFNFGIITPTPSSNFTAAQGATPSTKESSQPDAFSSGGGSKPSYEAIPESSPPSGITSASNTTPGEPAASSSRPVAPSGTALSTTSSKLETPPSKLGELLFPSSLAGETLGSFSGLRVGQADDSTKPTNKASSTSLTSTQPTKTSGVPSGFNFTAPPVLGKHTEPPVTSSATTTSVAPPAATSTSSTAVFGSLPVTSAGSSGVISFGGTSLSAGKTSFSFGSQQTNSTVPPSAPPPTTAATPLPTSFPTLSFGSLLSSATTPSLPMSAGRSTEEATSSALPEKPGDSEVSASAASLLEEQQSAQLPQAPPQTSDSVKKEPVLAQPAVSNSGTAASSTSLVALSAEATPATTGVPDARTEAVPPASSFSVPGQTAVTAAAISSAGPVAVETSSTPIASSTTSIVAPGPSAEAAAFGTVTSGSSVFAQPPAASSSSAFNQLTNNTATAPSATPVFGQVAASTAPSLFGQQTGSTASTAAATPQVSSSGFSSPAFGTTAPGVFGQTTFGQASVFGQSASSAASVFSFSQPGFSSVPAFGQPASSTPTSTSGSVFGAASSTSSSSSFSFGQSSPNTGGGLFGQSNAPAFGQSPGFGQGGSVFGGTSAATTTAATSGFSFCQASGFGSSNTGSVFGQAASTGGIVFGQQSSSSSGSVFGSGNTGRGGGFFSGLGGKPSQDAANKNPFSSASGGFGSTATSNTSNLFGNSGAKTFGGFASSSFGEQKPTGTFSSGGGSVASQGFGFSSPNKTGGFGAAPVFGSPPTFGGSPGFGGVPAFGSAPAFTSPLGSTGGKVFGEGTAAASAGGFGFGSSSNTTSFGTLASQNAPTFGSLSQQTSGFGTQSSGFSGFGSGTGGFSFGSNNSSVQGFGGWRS

Row | Binder | percent of transfected cells showing colocalization [1] [%] | percent of transfected cells showing colocalization [2] [%] | percent of transfected cells showing colocalization [3] [%] | percent of transfected cells showing colocalization [4] [%] | percent of transfected cells showing colocalization [5] [%]
1 | B1 | 67 | 63 | – | – | –
2 | B2 | – | – | 8 | 100 | 97
